Measured values reported in publication PMC9875831.
Like-named read-outs stand apart in the source and are kept apart here.

Columns and labels:
Assay in all cases: FRET or BRET
[1] = biological target: A2AR-D2R heteromer (A2AR-Rluc with D2R-GFP2) (human) (UniProt P29274)
[2] = biological target: A2AR-D2R heteromer (A2AR-Rluc with D2R-GFP2) (human) (UniProt P29274); remark: listed apart in the source
[3] = biological target: A2AR-Rluc (adenosine A2A receptor fused to Renilla luciferase) (human) (UniProt P29274)
[4] = biological target: D2R-Rluc (dopamine D2 receptor, long isoform, fused to Renilla luciferase) (human) (UniProt P14416)
UniProt P14416, sequence (P14416 whole entry, the tested form may be a part, canonical isoform): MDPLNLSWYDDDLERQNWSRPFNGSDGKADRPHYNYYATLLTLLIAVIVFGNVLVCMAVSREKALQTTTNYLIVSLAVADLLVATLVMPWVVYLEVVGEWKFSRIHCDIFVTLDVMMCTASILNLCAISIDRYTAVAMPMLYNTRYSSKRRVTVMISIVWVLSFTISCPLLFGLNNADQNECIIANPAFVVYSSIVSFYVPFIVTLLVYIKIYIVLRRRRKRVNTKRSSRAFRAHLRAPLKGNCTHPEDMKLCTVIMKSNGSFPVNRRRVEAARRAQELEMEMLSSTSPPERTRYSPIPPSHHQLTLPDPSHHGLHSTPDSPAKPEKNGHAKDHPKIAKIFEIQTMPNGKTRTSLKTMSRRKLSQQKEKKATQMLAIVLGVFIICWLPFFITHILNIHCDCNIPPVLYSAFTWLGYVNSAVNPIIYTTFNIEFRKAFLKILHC

Row | SRET50 [1] | SRET50 [2] | BRET50 [3] | BRET50 [4] | Substance
1 | 38.5 | 25.1 | 40.5 | 25.7 | calneuron-1-YFP (from UniProt Q9BXU9 1-261) (natural protein)
2 | 24.1 | 8.9 | 42.4 | 23.4 | NCS-1-YFP (neuronal calcium sensor 1 fused to yellow fluorescent protein) (from UniProt P62166 1-190) (natural protein)
